{"source": "patent US20260242834A1", "about": "“ENZYMES, POLYNUCLEOTIDES ENCODING SAME, AND METHODS OF USING SAME FOR PRODUCING MESCALINE” (YEDA RESEARCH AND DEVELOPMENT CO. LTD., priority 2023, published 2026)", "molecules": {"B1": {"name": "LwCYP12: Peyote CYP76AD-subfamily cytochrome P450 hydroxylase (protein, listed as Lophophora williamsii)", "chain": "MGYYAIFAVVLPFLWTCFYLLKLNPTSKLTSTIRLPPGPRPLPIIGNLHQLGERPHRTLANLAKVYGPIISLKFGSITTIAVSSADVAKEMFQKHDLALASRKVPAAVRANGHDNFSVAWLPVTPKWRFLRKISAIQLFSTQRLDARQSLRQAKVVELLDYIKARSNAGEPVDIGEAAFTTSLNLLSNTFFSMDLASYSSAASGEFKELVWKIMEEIGKPNLADCFPLVGFISRMSVNRELMGYGNKLNEVFAEIIEKRLSAANSSEGRGNGDVLDTLLRIMEEDDSELSLDDIMHLLMDFFTAGTDTTSSTLEWAMTELLHNPEKMAKAQAELEQVLGKDTVSIQESDIAKLLYLQATVKETLRMHPPTVFLLPRKADSDIDLYGHLVPKNAQVFVNLWAISYDPSTWENPDLFSPERFLDQDIDMKGQDFGFIPFGAGRRICPGLTLAYRMLNLMLGTLIHVFNWKLGDGLSREDLDMTDKFGITIQKAKPLRAIPILK"}, "B2": {"name": "OMT5: Peyote O-methyltransferase (protein, listed as Lophophora williamsii)", "chain": "MGSASGSAERTQMGEDEACSFAMTITSGSVPPMVLKAVIELDVLEIIKRAGPGAHLSPAEIAAQLPTTNPGAAAMLDRMLRLLASYDVLSYSLHTLPDGRVERLYGLAPVCQFLTNNEDGVTLSALSLMNQDKVLMESWYHLKDAVLDGGIPFNKAYGMTAFEYHGTDPRFNKVFNNGMSNHSTITMKKLLENYKGFEGVSTLVDVGGGTGATLNMIISKHPTIKGINFDLPHVIEDAPTYPGVEHIGGDMFVSVPKGDAIFMKWICHDWSDEHCLKFLKNCYAALADHGKVIVCEYILPVAPETNHAARTVFHVDAIMLAHNPGGKERTEQEFESLAKGAGFEGFRVACSAYDTKVMEFLKNN"}}, "key": {"[1]": {"target": "5-HT2A serotonin receptor (Homo sapiens, UniProt P28223)", "sequence (P28223 whole entry)": "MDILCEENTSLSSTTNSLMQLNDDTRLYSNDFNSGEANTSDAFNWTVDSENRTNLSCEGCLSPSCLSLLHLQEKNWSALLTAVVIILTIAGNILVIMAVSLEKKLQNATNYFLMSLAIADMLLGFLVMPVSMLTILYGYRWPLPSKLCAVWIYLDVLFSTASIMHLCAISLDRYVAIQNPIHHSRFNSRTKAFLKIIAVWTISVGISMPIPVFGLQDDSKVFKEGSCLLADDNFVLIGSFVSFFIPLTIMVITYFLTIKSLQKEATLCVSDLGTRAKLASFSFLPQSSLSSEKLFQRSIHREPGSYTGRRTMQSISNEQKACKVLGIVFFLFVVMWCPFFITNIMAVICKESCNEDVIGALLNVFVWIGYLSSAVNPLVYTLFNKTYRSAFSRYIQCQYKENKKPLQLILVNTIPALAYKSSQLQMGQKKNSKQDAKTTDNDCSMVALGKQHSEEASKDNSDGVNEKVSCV", "settings": "5-HT2A serotonin receptor agonist, cited from earlier work"}, "N. benthamiana leaves": {"test_system": "N. benthamiana leaves", "assay": "Transient expression in N. benthamiana leaves by agroinfiltration", "assay_type": "cell-based, Nicotiana benthamiana", "settings": "tyramine 4 to dopamine 3 and 3-MeO-tyramine 7 to 3,4-diOH-5-MeO-phenethylamine 6", "description": "TyDC2, CYP1-12, PPO1, MT1-4, OMT1,5,10,11 and the previously characterized BvCYP76AD6 were amplified and cloned in pAlpha2-NPT II-Ubq10-CCD-Ter10 vector digested with BsaI using ClonExpress II One Step Cloning kit (Vazyme). For BvCYP76AD6 the inventors used stocks of previously transformed bacteria containing the specific gene (Polturak et al., 2016; New Phyol.). All plasmids were sequenced and transformed into Agrobacterium tumefaciens strain GV3101 by electroporation. A. tumefaciens harboring the overexpression constructs were grown overnight at 28° C. in Luria-Bertani (LB) medium in the presence of kanamycin and gentamycin. Bacterial cells were collected by centrifugation, washed, and resuspended in infiltration buffer (10 mM MES, 2 mM MgCl2, 2 mM Na3PO4, 0.5% glucose and 100 mM acetosyringone) to OD600=0.8. Individual and/or equal volumes of A. tumefaciens suspension with different expression vectors were combined to obtain the desired gene combinations and incubated for 2 h at room temperature. The solutions were infiltrated into 4- or 5-week-old N. benthamiana leaves from the abaxial side using a 1-ml needleless syringe. […] Leaf samples were flash frozen and extracted as previously described with 300 μl ice-cold methanol with 0.1% formic acid and analyzed via LC-MS. […]"}, "3-MeO-tyramine 7": {"test_system": "3-MeO-tyramine 7", "assay": "Heterologous expression in yeast supplemented with 3-MeO-tyramine 7", "assay_type": "cell-based, S. cerevisiae", "settings": "two days from galactose induction; compared with LwCYP84A220"}, "[2]": {"assay": "OMT in vitro assays with lysates from transformed E. coli in the presence of SAM", "assay_type": "biochemical, Lophophora williamsii (Peyote)", "settings": "substrates 3, 6 or 9"}}, "data": [{"molecule": "COc1cc(CCN)cc(OC)c1OC", "note": "[Mescaline]", "values": [{"measurement": "times less potent effects than LSD", "setting": "[1]; compared with LSD", "value": "1,000-3,000 times"}, {"measurement": "times less potent than psilocybin", "setting": "[1]; compared with psilocybin", "value": 30, "unit": "times"}]}, {"molecule": "B1", "values": [{"measurement": "hydroxylation activity in planta", "setting": "N. benthamiana leaves", "value": "regioselectively catalyzes the two meta hydroxylations"}, {"measurement": "catalytic activity for the production of 3,4-diOH-5-MeO-phenethylamine 6", "setting": "3-MeO-tyramine 7", "value": "superior catalytic activity"}]}, {"molecule": "B2", "values": [{"measurement": "O-methylation regioselectivity", "setting": "[2]", "value": "O-methylated the two meta hydroxyl groups"}]}]}
